# B1: ZBTB16 BTB domain (residues 1-130) (domain or fragment)
# chain: MDLTKMGMIQLQNPSHPTGLLCKANQMRLAGTLCDVVIMVDSQEFHAHRTVLACTSKMFEILFHRNSQHYTLDFLSPKTFQQILEYAYTATLQAKAEDLDDLLYAAEILEIEYLEEQCLKMLETIQASDD
# Biological target: biotinylated ^AviSKP1-FBXO22(12-403) (UniProt P63208)
# Test: AlphaScreen or HTRF
# Chain of biotinylated ^AviSKP1-FBXO22(12-403) (P63208 2-163, chain 1 of 2): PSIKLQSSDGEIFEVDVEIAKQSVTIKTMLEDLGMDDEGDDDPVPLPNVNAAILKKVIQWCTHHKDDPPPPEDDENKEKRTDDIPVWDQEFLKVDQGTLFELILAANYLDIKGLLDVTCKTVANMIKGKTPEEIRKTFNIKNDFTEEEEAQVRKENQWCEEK
# Chain of biotinylated ^AviSKP1-FBXO22(12-403) (Q8NEZ5 12-403, chain 2 of 2, further chain): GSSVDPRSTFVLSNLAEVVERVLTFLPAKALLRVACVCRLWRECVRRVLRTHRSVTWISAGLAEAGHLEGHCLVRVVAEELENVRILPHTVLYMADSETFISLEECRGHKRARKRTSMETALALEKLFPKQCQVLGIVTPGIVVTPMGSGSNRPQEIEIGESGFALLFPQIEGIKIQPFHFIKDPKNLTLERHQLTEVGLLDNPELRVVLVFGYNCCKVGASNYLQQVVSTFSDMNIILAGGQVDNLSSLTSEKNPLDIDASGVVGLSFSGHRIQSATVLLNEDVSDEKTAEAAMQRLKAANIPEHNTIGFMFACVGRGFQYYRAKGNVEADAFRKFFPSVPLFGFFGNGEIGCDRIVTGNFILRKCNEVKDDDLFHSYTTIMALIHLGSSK
row,Molecule,IC50 [nM]
1,BACH1^BTB F125A (from UniProt O14867 7-128) (domain or fragment),7460
2,BACH1^BTB Y11F (from UniProt O14867 7-128) (domain or fragment),140
3,KEAP1 BTB domain (residues 48-180) (from UniProt Q14145 48-180) (domain or fragment),150
4,BACH1^BTB S13D (from UniProt O14867 7-128) (domain or fragment),2460
5,BACH1^BTB F125Y (from UniProt O14867 7-128) (domain or fragment),656
6,BACH1^BTB E12R (from UniProt O14867 7-128) (domain or fragment),149
7,BACH2 BTB domain (residues 8-131) (from UniProt Q9BYV9 8-131) (domain or fragment),85
8,BACH1^BTB Y11A (from UniProt O14867 7-128) (domain or fragment),2660
9,BACH1^BTB S13A (from UniProt O14867 7-128) (domain or fragment),183
10,BACH1^BTB F9A (from UniProt O14867 7-128) (domain or fragment),320
11,"BACH1 BTB domain (residues 7-128), wild type, tag-free (from UniProt O14867 7-128) (domain or fragment)",64

# Biological target: His10-TEV-BACH1^BTB (UniProt O14867)
# Test: AlphaScreen or HTRF
row,Molecule,IC50 [nM]
1,SKP1-FBXO22(R376P) (from UniProt P63208 2-163; Q8NEZ5 12-403) (complex),1350
2,SKP1-FBXO22(R376D) (from UniProt P63208 2-163; Q8NEZ5 12-403) (complex),900
3,"SKP1-FBXO22(R367W) (cancer-associated, TCGA) (from UniProt P63208 2-163; Q8NEZ5 12-403) (complex)",1480
4,"SKP1-FBXO22(Q307R) (cancer-associated, TCGA) (from UniProt P63208 2-163; Q8NEZ5 12-403) (complex)",165
5,"SKP1-FBXO22(Q307E) (cancer-associated, TCGA) (from UniProt P63208 2-163; Q8NEZ5 12-403) (complex)",575
6,"SKP1-FBXO22(R367L) (cancer-associated, TCGA) (from UniProt P63208 2-163; Q8NEZ5 12-403) (complex)",1040

# Biological target: biotinylated ^AviSKP1-FBXO22(12-403) (UniProt P63208)
# Test: AlphaScreen or HTRF
# Remark: another data set of the same source
row,Molecule,IC50 [nM]
1,B1,622

# Reference: paper doi:10.1101/2024.06.03.596960 (bioRxiv, 2024)
